Like-named read-outs stand apart in the source and are kept apart here. One block for each binder: values may come before it.
What was measured:
[1] = target: T1, human T-cell immunoglobulin and mucin-domain containing molecule 3 (TIM-3) (human, UniProt Q8TDQ0 22-200, limits assumed); assay: competition ELISA: pre-equilibrated mixture of mAb and human TIM3(ECD)-huFc on plate-coated phosphatidylserine (PtdSer, a lipid), anti-huFc-HRP detection, % inhibition
T1 construct: also called Human TIM-3
Experimental: (§1) ELISA plates were coated with PtdSer or PtdChol, washed and incubated with a pre-equilibrated mixture of purified antibodies at various concentrations and TIM3(ECD)-huFc. The plates were washed and then the signal was detected by incubation with HRP-coupled anti-huFc secondary antibody and then a HRP substrate. TIM-3 binding to PtdSer was used as 100% signal and TIM-3 binding to PtdChol as zero (background) to calculate percent of inhibition by a given mAb.
(§2) To determine the effect of anti-TIM-3 antibodies on the interaction of TIM-3 with phosphatidylserine (PtdSer), 384-well ELISA plates were coated with PtdSer or phosphatidylcholine (PtdChol) at room temperature. The wells were washed using PBS supplemented with 0.1% Tween-20 and then blocked using PBS supplemented with 2% bovine serum albumin (BSA). […] The plates were washed and then incubated with HRP-coupled anti-huFc secondary antibody. Plates were washed, incubated with an HRP substrate, and read using a POLARstar Omega Microplate (BMG LABTECH). The assay was performed in triplicate.

[2] = target: T1, human T-cell immunoglobulin and …; assay: as above; remark: listed apart in the source
Experimental: as §1, §2

[3] = target: T1, human T-cell immunoglobulin and …; assay: BLI (OCTET Red96), mAb on anti-mouse Fc biosensor, antigen in solution, 1:1 model
Experimental: Binding experiments were performed on OCTET Red96 at 25° C. Antibodies were loaded onto Anti-Mouse Fc (AMC) biosensors. Loaded sensors were dipped into serial dilutions of antigen. Kinetic constants were calculated using a monovalent (1:1) model. The assay buffer was PBS supplemented with 0.1% BSA, 500 mM NaCl, 0.02% Tween-20, pH 7.2.

[4] = target: T1, human T-cell immunoglobulin and …; assay: competition ELISA: pre-equilibrated mixture of mAb and human TIM3(ECD)-huFc on plate-coated phosphatidylserine (PtdSer, a lipid), anti-huFc-HRP detection, % inhibition; remark: listed apart in the source
Experimental: as §1, §2

[5] = target: T1, human T-cell immunoglobulin and …; assay: FACS on HEK293 cells transiently transfected with human TIM-3 (HuTIM-3 cells) against parental HEK293 cells (CTL cells), anti-mouse AlexaFluor488 secondary, MFI
Experimental: The binding of purified anti-TIM-3 mAbs to HEK293 cells transiently transfected with human TIM-3 (labeled as “HuTIM-3 cells”) or parental HEK293 cells (labeled as “CTL cells”) was tested by FACS at 3 different concentrations. An anti-mouse secondary Ab AlexaFluor488 was used for detection.
A human TIM-3-expressing plasmid was made and transiently transfected into HEK293T cells. After approximately 48 hours, cells were transferred to a 384-well V-bottom plate. Cells were washed with ice-cold FACS buffer (PBS supplemented with 1% BSA) and incubated with purified mAbs with gentle agitation at 4° C. for 45 minutes. The cells were washed with FACS buffer and incubated with an anti-mouse secondary Ab AlexaFluor488. The cells were washed and analyzed by FACS.

IC50 (read off the curve) [1]: ~7 nM
B1: 19-A14-A (antibody, V domains shown)
VH: DVQLQGSGPGLVKPSQSLSLTCTVTGYSITSDYAWNWIRQFPGNILEWMGYISYSGSTSYNPSLKSRISITRDTSKNQFFLQLNSVTTEDTATYYCARDGRYDYYAMDYWGQGTSVTVSS
VL: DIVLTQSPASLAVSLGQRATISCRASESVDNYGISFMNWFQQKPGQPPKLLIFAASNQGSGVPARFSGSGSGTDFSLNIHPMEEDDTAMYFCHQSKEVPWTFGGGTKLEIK
notes: also called anti-TIM-3 monoclonal antibody 19-A14-A

IC50 (read off the curve) [2]: ~6 nM | Kd [3]: 1.8 nM
B2: anti-TIM-3 monoclonal antibody 5-K4-A (antibody, V domains shown)
VH: EVQLQQSGPELVKTGASVKISCKASGYSFTAYYIHWVKQSHGKSLEWIGHISCFNGATSYNQKFKGKATFTVDTSSSTAYMQFNSLTSEDSAVYYCARRGDFDRPEFAYWGQGTLVTVSA
VL: DIVLTQSPASLAVSLGQRATISCRASESVEYYGTSLMQWYQQKPGQPPKLLIYAASNVESGVPARFSGSGSGTDFSLNIHPVEEDDIAMYFCQQSRKVPWTFGGGTKLEIK
notes: Mouse hybridoma mAb; captured on anti-mouse Fc biosensors

binding result [4]: binds
B3: 7-P15-A (antibody, V domains shown)
VH: QIQLVQSGPELKKPGETVKISCKASGYTFTNYGMNWVKQAPGKGLKWMGWINTYTGEPTYADDFKGRFAFSLETSASTAYLQINNLKNEDTATYFCARDLMDYWGQGTTLTVSS
VL: DVVMTQTPLSLPVSLGDQASISCRSSQSLVHSNGNTYLHWYLQKPGQSPKLLIYKVSNRFSGVPDRFSGSGSGTDFTLKITRVEAEDLGVYFCSQSIHVPYTFGGGTKLEIK
notes: also called anti-TIM-3 monoclonal antibody 7-P15-A

IC50 (read off the curve) [2]: ~7 nM
B4: 12-M11-A (antibody, V domains shown)
VH: QVQLQQSGAELAKPGASVKMSCKASGYFTSYWMHWVKQRPGQGLEWIGYINPITGYTEYNQKFKDKATLTADKSSSTAYMQLSRLTSEDSAVYYCARGVENFDYLYAMDYWGQGASVTVSS
VL: QIVLTQSPAIMSASPGEKVTMTCSASSSISYMHWYQQKPGTSPKRWIYDTSKLASGVPTRFNGSGSGTSYSLTISSMEAEDAATYYCHQRSSYRTFGGGTKLEIK
notes: also called anti-TIM-3 monoclonal antibody 12-M11-A

IC50 (read off the curve) [1]: ~6 nM
B5: 12-G18-A (antibody, V domains shown)
VH: DVQLQESGPGLVKPSQSLSLTCTVTGYSITSDYAWNWIRQFPGNKLEWMGYISYSGSTSYNPSLKSRISITRDTSKNQFFLQLNSVTIGDTATYYCASNYRYDYWFFGVWGAGTTVTVSS
VL: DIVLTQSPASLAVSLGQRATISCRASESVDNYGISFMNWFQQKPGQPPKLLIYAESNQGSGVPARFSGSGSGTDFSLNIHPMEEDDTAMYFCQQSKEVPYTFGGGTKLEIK
notes: also called anti-TIM-3 monoclonal antibody 12-G18-A

binding result [5]: binds
B6: 5-C11-A (antibody, V domains shown)
VH: EVQLVESGGGLVKPGGSLKLSCAASGFTFSDFYMYWVRQTPEKRLEWVATISDGGSYTYYPDSVKGRFTISRDNAKNNLYLQMSSLKSEDTAMYYCASGYYYGSDYVMDYWGQGTSVTVSS
VL: DIVMSQSPSSLAVSAGEKVTMSCKSSQSLLNSRTRKNYLAWYQQKPGQSPKLLIYWASTRESGVPDRFTGSGSGTDFTLTISSVQADDLAVYYCKQSYNLLTFGAGTKLELK
notes: also called anti-TIM-3 monoclonal antibody 5-C11-A

binding result [5]: binds
B7: 2-K2-A (antibody, V domains shown)
VH: QVQLQQSGAELAKPGASVKMSCKASGYTFTTYWMHWVKQRPGQGLEWIGYINPSTGYTEYNQKFKDKSTLTADKSSSTAYMQLSSLTSEDSAVYYCANDHEGGFAYWGQGTLVTVSA
VL: DILMTQSPSSMSVSLGDTVSITCHASQGISSNIGWLQQKPGKSFKGLIYHGTNLEDGVPSRFSGSGSGADYSLTISSLESEDFADYYCVQYAQFPFTFGSGTKLEIK
notes: also called anti-TIM-3 monoclonal antibody 2-K2-A

binding result [4]: binds
B8: 18-O22-A (antibody, V domains shown)
VH: EVQLQQSGPELVKPGASVKVSCKASGYTFTSYVMHWVKQKPGQGLEWIGYINPYNDVTKYNEKFKGKATLTSDKSSSTAYMELSSLTSEDSAVYYCARSSDYDDGHWYFDVWGAGTTVTVSS
VL: DIVLTQSPASLAVSLGQRATISCKASQSVDYDGESYMNWYQQKPGQPPKLLIYVASNLESGIPVRFSGSGSGTDFTLNIHPVEEEDAATYYCQQSNEDPTWTFGGGTKLEIK
notes: also called anti-TIM-3 monoclonal antibody 18-O22-A

— US20210032330A1 (PHANES THERAPEUTICS, published 2021)
